Results taken from the nanobody polyreactivity screen of Harvey et al. (2022).

assay: yeast display, Sf9 membrane polyspecificity reagent, FACS + sequencing; frameworks hold sequencing errors
In short: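 Galactose-induced (36–48 hours) yeast carrying a synthetic nanobody display library were exposed to 10% biotinylated, detergent-solubilized Sf9 membrane reagent at 4 °C for 1 hour. FACS followed streptavidin microbead enrichment, using low and high (top ~1%) gates for expression (anti-HA) and reagent binding (streptavidin). Colony PCR, MiSeq 2 × 250 sequencing and CDR-length filtering followed. Labels for polyreactivity reflect the gate of origin.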

Sequence | polyreactivity (PSR sort gate)
QVQLVESGGGLVQAGGSLRLSCPASGRTYASYAMGWYRQAPGKDRELVAAITSSGGSTYYADSVKGRFTISRDNAKNTVYLQMNSLKPEYTAVYYCAARSRYRGDSWGQGTQVTVSS | high polyreactivity
QVQLVESGGGLVQAGGSLRLSCPASGSIFQYYAMGWYRQAPGKERELVAAISSGGRTNYADSVKGRFTISRDNAKNTVYLQMNSLKPEATAVYYCAAARYYYQVYRWEYDYWGQGTQVTVSS | high polyreactivity
QVQLVESGGGLVQAGGSLRLSCPASGSIFRGYGMGWSRQAPGKERELVAAMSSSGGTYYADSVKGRFTISRDNAKKTVYLQMNSLKPEDTAVYYCNARVRTQQRWVDYWGQGTQVTVSS | high polyreactivity
QVQLVESGGGLVQAGGSLRLSCPASGSIIYTNDMGWYRQEPGKEREMVAAISYGGTTTYADSVKGRFTISRDNAKNTVYLQMNSLKPEDTAVYYCNADWLYYGYWGYGHIWYDFWGQGTQVTVSS | low polyreactivity
QVQLVESGGGLVQAGGSLRLSCPASGSTIPVNAMVWYRQAPGKERELVAAIRSSTGRTYYADSVKGRFTTSRDNAKNTVYLQMNSLKPEDTAVYYCAADYRYNRGITSNKDYDYWGQGTQVTVSS | low polyreactivity
QVQLVESGGGLVQAGGSLRLSCPATGFTFSVYVMAWYRLAPGKERELVAAISSGGDTTYADSVKGRFTISRDNAKNTVYLQMNSLKPEDTAVYYCAAYRVILYYLYDYWGQGTQVTVSS | low polyreactivity
QVQLVESGGGLVQAGGSLRLSCPAYGSIFEGHGMGWYRQAPGKEREMVAAITFRSGSTYYADSVKWRFTISRDNAKNTVYLQINSLKPDDTAVYYCAADEYYQVSAYDYWGQGTQVTVSS | low polyreactivity
QVQLVESGGGLVQAGGSLRLSCPAYGSIFIGNAMGWYRQAPGKERELVAVISKGGGRTYYADSVKGRFTISRDNAKNTVYLQMNSLKPEDTAVYYCNTRNPDSGDYWGQGTQVTVSS | high polyreactivity
QVQLVESGGGLVQAGGSLRLSCPDSGRIFFLYAMGWYRQAPGKERELVAAITKSGGSTYADSVKGRFTISRDNAKNTVFLQMNSLIPEDTAVYYCAADLFTDLYDSWGQGTQVTVSS | low polyreactivity
QVQLVESGGGLVQAGGSLRLSCSASGFIFSRYVMGWYRKAPGKEREFVAVISYRGGSTYYADSVKGRFTFSRDNAKNTVYLQMNSLKPEDTAVYYCNADTIPDGEDRYDYWGQGTQVTVSS | low polyreactivity
QVQLVESGGGLVQAGGSLRLSCSASGFTFNYNAMGWYRQAPGKERELVASITRSGGRTYYADSVKGRFTISRDNAKITVYLQMNSLKPEDTAVYYCAAEVWYSLSYRVYGGYDFWGQGTQVTVSS | high polyreactivity
QVQLVESGGGLVQAGGSLRLSCSASGIIFVRNAMGWYRQAPGKERELVAAITWRGSTYYADSVKGRFTISRDNAKNTVYLQMNSLKPEDTAVYYCAAVKPHYTSFRDYYWGQGTQVTVSS | high polyreactivity
QVQLVESGGGLVQAGGSLRLSCSASGLIFGNYAMGWYRQAPGKERELVAAITSTGITYYADSVKGRFTISRDNAKNTVYLQMNSLKPEDTAVYYCAAASRFHPDRGGYWGQGTQVTVSS | low polyreactivity
QVQLVESGGGLVQAGGSLRLSCSASGLIFGNYGMGWYRQAPGKERELVAVITDDDSTTYADSVKGRFTISRDNAKNTFYLQMNSLKPEDTAVYYCNADNLLGRFDSWGQGTLVTVSS | low polyreactivity
QVQLVESGGGLVQAGGSLRLSCSASGLIFSTYAMGWYRQAPGKVRELVAAISGTGSTYYADSVKGRFTISRDNAKNTVYLQMNRLKPEDTSVYYCAAGATLWLLGLKMGYWGQGTQVTVSS | low polyreactivity
QVQLVESGGGLVQAGGSLRLSCSASGLIYYYYTMGWYRPPPGKERELVAVISSSGGSTYYADSVKGRFTISRDNAKNTVYLQMNSLKPEDTAVYYCAAVYHFQYGAYDYWGQGTQGTVSS | high polyreactivity
QVQLVESGGGLVQAGGSLRLSCSASGLTFTKYAMGWYRQAPGKEREFVATITSGGSTNYADSVKGRFTISRDNAKNTVYLQMNSLKPEDTAVYYCNRDNYKWPYWEFDYWGQGTQVTVSS | high polyreactivity
QVQLVESGGGLVQAGGSLRLSCSASGRIFPRNAMGWYRQAPGKERHLVAAISQSGTSTYYADSVKGRFTISRDNAQKTVYLQMNSLKREDTAVYYCAASGWDHVIVEYDYWGEGTQVTVSS | low polyreactivity
QVQLVESGGGLVQAGGSLRLSCSASGRIFPWNTMGWYRQAPGKERELVAGITSGGSTNYADSVKGRFTISRDNAKNTVYLQMNSLKPEDTAVYYCAARGYYWYISGVYEYEYWGQGTQVTVSS | low polyreactivity
QVQLVESGGGLVQAGGSLRLSCSASGRTFDGYAMVWYRQAPGKEREMVASITRGGGSTYYADSVKGRFTISRDNAKNTVYLQMNSLKPEDTAVYYCATSDRQVKYDYWGQGTQVTVSS | low polyreactivity
QVQLVESGGGLVQAGGSLRLSCSASGRTFLYDMGWYTHATGKELELVAAISRGGSTSYADSVKGRFTISRDNAKNTVYLQMNSLKPEDTAVYYCATRGLVGYYSYYYWGQGTQVTVSS | high polyreactivity
QVQLVESGGGLVQAGGSLRLSCSASGRTFSKYAMAWYRQAPGKERELVAAISKRGGSTSYADSVKGRFTISRDNAKNTVYLQMNSLKREDTAVYYCAATYTYVVPEYDYWGHGTQVTVSS | high polyreactivity

Sequence | polyreactivity (PSR sort gate)
QVQLVESGGGLVQAGGSLRLSCSASGRTFSWYAMGWYRQAPGKERELVAAISWSGGSTYYADSVKGRFTISRDNAKNTVYLQMNSLKPEDTAVYYCNAVGRPLRGYDYWGQGTQVTVSS | high polyreactivity
QVQLVESGGGLVQAGGSLRLSCSASGRTFTPYAMGWYRQAPGKEREFVAAISIVGRTKYADSVKGRFTISPDNAKNTFYFQMNSLKPEDTAVYYCNAQDSRDRKFYWGYTRGHWGQGTQVTVSS | low polyreactivity
QVQLVESGGGLVQAGGSLRLSCSASGRTFYGNAMGWYRQAPGKERELVAAISWSGGSTYYADSVKGRFPISRDNAKNTVYLQMISLKPEYTAVYYCNADYFAWDLMYYWGQGTQVTVSS | low polyreactivity
QVQLVESGGGLVQAGGSLRLSCSASGRTSDYYAMGWYRQAPGKERELVAAITSGGSTYYADSVKGRFTISRDNAKITVYFQMNSLKPEDTAVYYCAATWYWGWVFSYTSFDYWGLGTQVTVSS | low polyreactivity
QVQLVESGGGLVQAGGSLRLSCSASGSIFAIYTMGWYRQAPGTERELVAAISSRGDSTYYADSVKGRFTISRDNAKNTVYLQMNSLKPEDTAVYYCATRGDGVLGRRGYYWGQGTQVTVSS | high polyreactivity
QVQLVESGGGLVQAGGSLRLSCSASGSIFASNTMGWYRQAPGKERELVAGITKIGSSTYYADSVKGRFTISRDNAKNTFYLQMKSLKPEDTAVSYCKAYGPNIYSSRYDYWVQGTQVTVSS | low polyreactivity
QVQLVESGGGLVQAGGSLRLSCSASGSIFAWYGRGWYRQSPGKESELVAAITSTGSTYYADSVKGRFTISRDNAKNTVYLQMTSLKPEDTAVYYCNAYYVYLWRPGVYWGQGTQVTVSS | low polyreactivity
QVQLVESGGGLVQAGGSLRLSCSASGSIFSYYTMGWYRQAPGKERELVAAITGSGGRTYYADSVKGRFTISRDNAKNTVYLQMNSLKPEDTAVYYCNADRHYVPYYSRPRYIPYDYWGQGTQVTVSS | high polyreactivity
QVQLVESGGGLVQAGGSLRLSCSASGSILVRYAMGWYRQSPGKERELVAAITSGGSTYADSVKGRFTISRDNAKNTVYLQMNSLKPEDTAVYYCARDYFNREAFDYWGQGTQVTVSS | low polyreactivity
QVQLVESGGGLVQAGGSLRLSCSASGSTFEKNAMGWYRQAPGKERELVAAISNGVSTYYADSVKGRFTNSRDNAKNTVYLKINSLKPEDTAVYYCAAVLFFGAETVYYDKFDYWGQGTQVTVSS | low polyreactivity
QVQLVESGGGLVQAGGSLRLSCSASGSTFESNAMGWYRQAPGKERELVASISGSGGSTFYADSVKGRFTISRDNAKNTVYLQMNSLKPEDTAVYYCAAYKEPYYEEYGYWGQGTQVTVSS | low polyreactivity
QVQLVESGGGLVQAGGSLRLSCSASGSTFFSYAMGWYRQAPGKERELVATITSGGSTFADSVKWRFTISRDNAKNTVYLQMNSLKPEDTAVYYCNTDVVDCLFYHCECRFNYLGQGTQVTVSS | low polyreactivity
QVQLVESGGGLVQAGGSLRLSCSASGSTFGYYAMGWYRQAPGKERELVAAITRSGGSTFYADSVKGRFTISRDNAKNTVYLQMNSLKPEDTAVYYCAATYWPYRPGYYYWGQGTQVTVSS | high polyreactivity
QVQLVESGGGLVQAGGSLRLSCSASGSTFSAYVMGWYRQAPGKERKLVAAITRSGVSTYYADSVKGRFTISRDNAKNTVYLQMNSLKPEDTAVYYCNKRVGFLYKYDYWGQGTQVTVSS | high polyreactivity
QVQLVESGGGLVQAGGSLRLSCSASGSTFTAYAMGWSRQAPGKERELVATISDSGGSTYYADSVKGRFTISRDNAKNTVYLQMNSLKPEDTAVYYCAADVYSYFYQVVYTFDYWGQCTQVTVSS | low polyreactivity
QVQLVESGGGLVQAGGSLRLSCSASGSTFTWYAMGWYRQATGKERELVADISNGGGSTYYADSVKGRFTISRDNEKNTVYLQINSLKPEDTEVYYCAAESIPYYRYDYWGQGTQVTVSS | low polyreactivity
QVQLVESGGGLVQAGGSLRLSCSASGYISHYAMGWYRQAPGKERELVAAISRRGGSTYYADSVKGRFTISRDNAKNTVYLQMNSLKPEDTAVYYCNKATSYFTVRGYDYCGQGTQVTVSS | high polyreactivity
QVQLVESGGGLVQAGGSLRLSCSASGYTFPLYAMGWYRQAPGKERELVADINIGGASTYYADSVKGRFTISRDNAKNTVYLQMNSLKPEDTAVYYCAIQYYDGYFPTFEYDYWGQGTQVTVSS | low polyreactivity
QVQLVESGGGLVQAGGSLRLSCSASGYTFYLYTMGWYRQAPGTERELVAAISGSGTSTYYADSVKGRFTISRDNAKNTVYLQMNSLKPEDTAVYYCAAEDYSRDVYSYYYWGQGTQVTVSS | low polyreactivity
QVQLVESGGGLVQAGGSLRLSCSASVRTFYRNSMGWYRQAPGKEREFVAVISVSGGSTYYADSVKGRFTISRDNAKNTVYLQMNSLKPEDTAVYYCAADEYYTFSSFELRRMDYWGQGTQVTVSS | low polyreactivity
QVQLVESGGGLVQAGGSLRLSCSATGLTFRPYAMGWYRQAPGTERELVAGITRGGSTKYADSVKGRFTISRDNAKNTVYLLMISLKPEDTAVYYCAVERGSYSYDRPFYYWGQGTQVTVSS | high polyreactivity
